From patent US20200317768A1 (published 2020)
Positions count from the first letter of the chain named.

T1: human FcγRIIaH extracellular domain, His-tagged (human, UniProt P12318 34-217)
T1 construct: also called human FcγRIIa (type H); FcgRIIaH; not shown: C-terminal His-tag
T1 sequence: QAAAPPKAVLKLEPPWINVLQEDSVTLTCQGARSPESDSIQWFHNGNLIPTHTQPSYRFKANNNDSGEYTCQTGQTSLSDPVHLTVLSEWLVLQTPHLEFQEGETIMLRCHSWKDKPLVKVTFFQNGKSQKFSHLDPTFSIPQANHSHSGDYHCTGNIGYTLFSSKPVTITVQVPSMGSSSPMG

T2: cynomolgus monkey FcγRIIb extracellular domain, His-tagged (cynomolgus monkey)
T2 construct: also called cyno FcγRIIb; cynoFcγRIIb; not shown: C-terminal His-tag
T2 chain: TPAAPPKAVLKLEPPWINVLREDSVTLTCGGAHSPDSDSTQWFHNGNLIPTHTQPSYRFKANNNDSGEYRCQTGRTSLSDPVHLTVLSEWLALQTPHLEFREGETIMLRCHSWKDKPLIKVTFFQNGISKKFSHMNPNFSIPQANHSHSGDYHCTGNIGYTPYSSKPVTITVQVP

T3: cynomolgus monkey FcγRIIIaS extracellular domain, His-tagged (cynomolgus monkey, UniProt Q8SPW2 21-206 at identity 1.00))
T3 construct: also called cyno FcγRIIIaS; cynoFcγRIIIaS; not shown: C-terminal His-tag
T3 chain: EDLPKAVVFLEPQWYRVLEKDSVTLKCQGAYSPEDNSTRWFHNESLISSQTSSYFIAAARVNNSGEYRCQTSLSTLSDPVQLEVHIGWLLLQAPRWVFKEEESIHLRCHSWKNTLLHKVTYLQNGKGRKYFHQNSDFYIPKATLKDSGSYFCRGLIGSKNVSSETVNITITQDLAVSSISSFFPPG

T4: cynomolgus monkey FcγRIIa2 extracellular domain, His-tagged (cynomolgus monkey)
T4 construct: also called cyno FcγRIIa2; cynoFcgRIIa2; not shown: C-terminal His-tag
T4 chain: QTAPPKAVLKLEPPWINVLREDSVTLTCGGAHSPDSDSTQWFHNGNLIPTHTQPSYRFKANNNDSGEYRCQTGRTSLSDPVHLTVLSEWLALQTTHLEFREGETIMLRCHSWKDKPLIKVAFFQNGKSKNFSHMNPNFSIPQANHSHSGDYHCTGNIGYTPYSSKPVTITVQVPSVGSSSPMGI

T5: cynomolgus monkey FcγRIIa1 extracellular domain, His-tagged (cynomolgus monkey)
T5 construct: also called cyno FcγRIIa1; cynoFcgRIIa1; not shown: C-terminal His-tag
T5 chain: T4 chain with T95P, A121T, K127I, S128A, N130K, N135D, Q142R

T6: human FcγRIIb extracellular domain, His-tagged (human, UniProt P31994 43-217)
T6 construct: also called FcgRIIb (human); not shown: C-terminal His-tag
T6 sequence: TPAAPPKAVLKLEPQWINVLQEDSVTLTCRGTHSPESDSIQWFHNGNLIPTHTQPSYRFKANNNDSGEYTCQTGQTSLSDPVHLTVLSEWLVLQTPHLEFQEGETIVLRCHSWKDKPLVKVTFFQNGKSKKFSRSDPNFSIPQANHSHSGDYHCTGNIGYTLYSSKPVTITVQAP

T7: human FcγRIIaR extracellular domain, His-tagged (human, UniProt P12318 34-217)
T7 construct: also called human FcγRIIa (type R); FcgRIIaR; not shown: C-terminal His-tag
T7 chain: T1 sequence with H134R

T8: cynomolgus monkey FcγRIIa3 extracellular domain, His-tagged (cynomolgus monkey)
T8 construct: also called cyno FcγRIIa3; cynoFcgRIIa3; not shown: C-terminal His-tag
T8 chain: T4 chain with K127I, N130K, H133P, Q142R

B1: M103205H795-MY443/M103202L889-SK1 (antibody, human IgG1, kappa)
heavy: QVTLKESGPVLVKPTETLTLTCTVSGIDLSHDDISWVRQAPGKGLEWVGIISYAGSTYYASWAKGRLTISKDTSKNQVVLTMTNMDPVDTATYYCARGVPAYSHGGDLWGQGTLVTVSSASTKGPSVFPLAPSSKSTSGGTAALGCLVKDYFPEPVTVSWNSGALTSGVHTFPAVLQSSGLYSLSSVVTVPSSSLGTQTYICNVNHKPSNTKVDKKVEPKSCDKTHTCPPCPAEELLTGPSVFLFPPKPKDTLMISRTPEVTCVVVDVSDEDPEVKFNWYVDGVEVHNAKTKPREEQYNSTYRVVSVLTVLHQDWLNGKEYKCKVSNKALPKPIEKTISKAKGQPREPQVYTLPPSREEMTKNQVSLTCLVKGFYPSDIAVEWESNGQPENNYKTTPPVLDSDGSFFLYSKLTVDKSRWQQGNVFSCSVMHEALHNHYTQKSLSLSP
light: DIVMTQSPATLSLSPGERATLSCTSSQSVYHANWLSWFQQKPGQPPKLLIYWASTLAYGVPSRFSGSGSGTDFTLTISSLQPEDAATYYCAGGYGGGRYAFGQGTKVEIKRTVAAPSVFIFPPSDEQLKSGTASVVCLLNNFYPREAKVQWKVDNALQSGNSQESVTEQDSKDSTYSLSSTLTLSKADYEKHKVYACEVTHQGLSSPVTKSFNRGEC
notes: copies: 2 + 2
B2: M103205H795-MY444/M103202L889-SK1 (antibody, human IgG1, kappa)
heavy: B1 heavy with E234F
light: B1 light
notes: copies: 2 + 2
B3: M103205H795-MY447/M103202L889-SK1 (antibody, human IgG1, kappa)
heavy: B1 heavy with E234I
light: B1 light
notes: copies: 2 + 2
B4: M103205H795-MY446/M103202L889-SK1 (antibody, human IgG1, kappa)
heavy: B1 heavy with E234H
light: B1 light
notes: copies: 2 + 2
B5: M103205H795-MY448/M103202L889-SK1 (antibody, human IgG1, kappa)
heavy: B1 heavy with E234K
light: B1 light
notes: copies: 2 + 2
B6: M103205H795-MY459/M103202L889-SK1 (antibody, human IgG1, kappa)
heavy: B1 heavy with A233D, E234P
light: B1 light
notes: copies: 2 + 2
B7: M103205H795-MY445/M103202L889-SK1 (antibody, human IgG1, kappa)
heavy: B1 heavy with E234G
light: B1 light
notes: copies: 2 + 2
B8: M103205H795-MY460/M103202L889-SK1 (antibody, human IgG1, kappa)
heavy: B1 heavy with A233E, E234P
light: B1 light
notes: copies: 2 + 2

What follows are binders tested against T1, human FcγRIIaH extracellular domain, … (assay: SPR (BIACORE); KD of SG1 divided by KD of variant;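 further: relative to parent M103205H795-SG1 carrying the SG1 human heavy chain constant region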).
Description: (§1) The kinetic analysis of interactions between these antibodies and FcγR was carried out using BIACORE® T200 or BIACORE® 4000 (GE Healthcare). HBS-EP+ (GE Healthcare) was used as the running buffer, and the measurement temperature was set to 25° C. A chip produced by immobilizing Protein A. Protein A/G or mouse anti-human IgG kappa light chain (BD Biosciences) onto a Series S Sensor Chip CM4 or CM5 (GE Healthcare) by the amine-coupling method was used. […] After the measurement, the antibody captured on the chip was washed off by allowing reaction with 10 mM glycine-HCl, pH1.5 and 25 mM NaOH so that the chip was regenerated and used repeatedly. The sensorgrams obtained as measurement results were analyzed by the 1:1 Langmuir binding model using the BIACORE® Evaluation Software to calculate the binding rate constant ka (L/mol/s) and dissociation rate constant kd (l/s), and the dissociation constant KD (mol/L) was calculated from these values. […] Regarding such interactions, KD values were calculated using the following 1:1 binding model described in BIACORE® T100 Software Handbook BR1006-48 Edition AE.

Binder | KD fold (SG1 = 1) [fold]
B1 | 1.3
B2 | 6.3
B3 | 7.1
B4 | 2.7
B5 | 0.7
B6 | 1.8
B7 | 1.2
B8 | 2.7

Target: T2, cynomolgus monkey FcγRIIb extracellular …
Assay: SPR (BIACORE); KD of SG1 divided by KD of variant;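 further: relative to parent M103205H795-SG1 carrying the SG1 human heavy chain constant region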
Description: as §1

Binder | KD fold (SG1 = 1) [fold]
B1 | 1.5
B2 | 6
B3 | 7.8
B4 | 2.6
B5 | 0.6
B6 | 1.6
B7 | 1.9
B8 | 2.3

Target: T3, cynomolgus monkey FcγRIIIaS …
Assay: SPR (BIACORE); KD of SG1 divided by KD of variant;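 further: relative to parent M103205H795-SG1 carrying the SG1 human heavy chain constant region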
Description: as §1

Binder | KD fold (SG1 = 1) [fold]
B1 | 0.1
B2 | 0.2
B3 | 0.5
B4 | 0.1
B5 | 0.1
B6 | 0.1
B7 | 0.1
B8 | 0.1

Target: T4, cynomolgus monkey FcγRIIa2 …
Assay: SPR (BIACORE); KD of SG1 divided by KD of variant;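 further: relative to parent M103205H795-SG1 carrying the SG1 human heavy chain constant region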
Description: as §1

Binder | KD fold (SG1 = 1) [fold]
B1 | 1
B2 | 4.6
B3 | 5.3
B4 | 2.3
B5 | 0.7
B6 | 1.1
B7 | 0.9
B8 | 1.6

Target: T5, cynomolgus monkey FcγRIIa1 …
Assay: SPR (BIACORE); KD of SG1 divided by KD of variant
Description: as §1

Binder | KD fold (SG1 = 1) [fold]
B1 | 0.7
B2 | 2.7
B3 | 3.2
B4 | 1.3
B5 | 0.3
B6 | 0.6
B7 | 0.6
B8 | 1

What follows are binders tested against T6, human FcγRIIb extracellular domain, … (assay: SPR (BIACORE); KD of SG1 divided by KD of variant).
Description: as §1

Binder | KD fold (SG1 = 1) [fold]
B1 | 1.6
B2 | 6.2
B3 | 10.5
B4 | 1.9
B5 | 0.5
B6 | 1.8
B7 | 1.1
B8 | 1.9

Target: T7, human FcγRIIaR extracellular domain, …
Assay: SPR (BIACORE); KD of SG1 divided by KD of variant
Description: as §1

Binder | KD fold (SG1 = 1) [fold]
B1 | 1.7
B2 | 7.9
B3 | 11.2
B4 | 2.3
B5 | 0.5
B6 | 2
B7 | 1
B8 | 2

Target: T8, cynomolgus monkey FcγRIIa3 …
Assay: SPR (BIACORE); KD of SG1 divided by KD of variant
Description: as §1

Binder | KD fold (SG1 = 1) [fold]
B1 | 1.9
B2 | 6.9
B3 | 11.3
B4 | 3.6
B5 | 0.8
B6 | 2.3
B7 | 1.2
B8 | 3.1

Each binder was assayed against T9, human FcγRIIIaV extracellular domain, His-tagged (human, UniProt P08637 17-208) (assay: SPR (BIACORE); KD of SG1 divided by KD of variant).
T9 construct: also called FcgRIIIaV; not shown: C-terminal His-tag
Description: as §1

T9 sequence (P08637 17-208 F176V): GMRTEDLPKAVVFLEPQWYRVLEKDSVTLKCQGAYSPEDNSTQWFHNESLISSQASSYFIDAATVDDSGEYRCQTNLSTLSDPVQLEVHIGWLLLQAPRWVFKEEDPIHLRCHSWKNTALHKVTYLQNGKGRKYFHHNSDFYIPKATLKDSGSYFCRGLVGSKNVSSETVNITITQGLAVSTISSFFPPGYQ

Binder | KD fold (SG1 = 1) [fold]
B1 | 0.1
B2 | 0.3
B3 | 0.2
B4 | 0.1
B5 | 0.1
B6 | 0.1
B7 | 0.1
B8 | 0.1
